Literature values as cited in patent publication US20040126825A1, “Methods of screening and using inhibitors of angiogenesis” (Allergan, Inc, priority 2001, published 2004).

Tested on: MMP-2
Conditions: cultured breast carcinoma cells; Deryugina et al. 2001

## vitronectin: a specific ligand of αvβ3
  activation of MMP-2 (conversion from pro-form to active form): inhibited
